According to patent publication US20220204643A1 (published 2022):
Each block holds one binder with its values, some of them ahead of it.

Assays:
[1] = target: T1, microfibril associated protein 3, transcript variant 3 (human, UniProt P55082 19-362)
T1 construct: HuProt array protein, full-length recombinant from yeast; also called MFAP3

[2] = target: T2, butyrophilin subfamily 1 member A1 (human, UniProt Q13410 27-526)
T2 construct: HuProt array protein, full-length recombinant from yeast; also called BTN1A1
T2 sequence: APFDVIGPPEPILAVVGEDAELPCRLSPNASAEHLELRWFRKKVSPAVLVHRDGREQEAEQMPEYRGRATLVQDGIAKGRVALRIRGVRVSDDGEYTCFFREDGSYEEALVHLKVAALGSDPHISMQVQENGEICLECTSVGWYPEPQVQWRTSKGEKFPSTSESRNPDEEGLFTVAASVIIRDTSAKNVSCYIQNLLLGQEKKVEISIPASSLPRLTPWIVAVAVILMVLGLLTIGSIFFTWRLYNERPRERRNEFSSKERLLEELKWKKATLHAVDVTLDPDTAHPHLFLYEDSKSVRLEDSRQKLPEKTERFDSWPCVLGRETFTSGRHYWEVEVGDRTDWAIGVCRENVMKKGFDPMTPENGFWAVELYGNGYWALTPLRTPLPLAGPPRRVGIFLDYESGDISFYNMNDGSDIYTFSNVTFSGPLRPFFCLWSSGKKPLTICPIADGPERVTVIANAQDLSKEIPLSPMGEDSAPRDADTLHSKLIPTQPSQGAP

[3] = target: T3, glucuronidase, beta pseudogene (human)
T3 construct: HuProt array protein; labelled _frag; pseudogene product; also called BC025996.2_frag
T3 chain: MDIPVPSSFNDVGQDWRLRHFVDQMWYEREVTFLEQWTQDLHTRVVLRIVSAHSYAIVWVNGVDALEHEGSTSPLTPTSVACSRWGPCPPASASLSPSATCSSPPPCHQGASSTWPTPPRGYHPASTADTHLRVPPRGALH

cancer/testis antigen 1A = target: T4, cancer/testis antigen 1A (human, UniProt P78358 1-180)
T4 construct: HuProt array protein, full-length recombinant from yeast; also called CTAG1A

[4] = target: T5, membrane palmitoylated protein 2, transcript variant 3 (human, UniProt Q14168 1-576)
T5 construct: HuProt array protein, full-length recombinant from yeast; also called MPP2
T5 sequence: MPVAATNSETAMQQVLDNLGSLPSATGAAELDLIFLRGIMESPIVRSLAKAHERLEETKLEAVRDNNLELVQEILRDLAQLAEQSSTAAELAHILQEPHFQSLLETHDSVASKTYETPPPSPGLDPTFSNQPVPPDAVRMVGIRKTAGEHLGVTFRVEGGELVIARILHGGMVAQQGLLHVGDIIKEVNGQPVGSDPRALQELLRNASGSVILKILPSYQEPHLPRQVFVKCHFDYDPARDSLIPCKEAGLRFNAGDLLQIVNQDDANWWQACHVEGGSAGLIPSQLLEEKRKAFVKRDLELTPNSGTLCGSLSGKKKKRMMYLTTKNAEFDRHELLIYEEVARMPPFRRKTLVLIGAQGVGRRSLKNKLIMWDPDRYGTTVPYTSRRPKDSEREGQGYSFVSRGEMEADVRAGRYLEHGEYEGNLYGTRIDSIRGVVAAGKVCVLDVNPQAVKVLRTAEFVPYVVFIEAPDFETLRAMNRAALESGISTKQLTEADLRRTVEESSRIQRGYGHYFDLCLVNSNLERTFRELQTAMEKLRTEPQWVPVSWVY

[5] = target: T6, kelch like family member 40 (human, UniProt Q2TBA0 1-621)
T6 construct: HuProt array protein, full-length recombinant from yeast; also called KLHL40
T6 sequence: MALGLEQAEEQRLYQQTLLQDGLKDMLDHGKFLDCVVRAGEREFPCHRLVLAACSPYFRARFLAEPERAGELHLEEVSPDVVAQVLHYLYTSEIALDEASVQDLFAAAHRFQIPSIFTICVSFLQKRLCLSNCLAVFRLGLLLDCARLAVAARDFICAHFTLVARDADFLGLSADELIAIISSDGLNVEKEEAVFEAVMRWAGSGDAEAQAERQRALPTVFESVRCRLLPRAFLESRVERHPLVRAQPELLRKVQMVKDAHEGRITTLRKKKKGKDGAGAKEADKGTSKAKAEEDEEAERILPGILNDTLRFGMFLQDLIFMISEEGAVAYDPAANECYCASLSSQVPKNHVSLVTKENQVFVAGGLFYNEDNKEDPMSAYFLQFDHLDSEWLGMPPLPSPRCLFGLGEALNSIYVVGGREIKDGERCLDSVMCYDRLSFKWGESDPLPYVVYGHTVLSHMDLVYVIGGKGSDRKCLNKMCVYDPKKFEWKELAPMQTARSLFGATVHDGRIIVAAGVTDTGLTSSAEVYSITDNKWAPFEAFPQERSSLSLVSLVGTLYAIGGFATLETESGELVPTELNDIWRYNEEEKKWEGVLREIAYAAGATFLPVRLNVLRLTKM

[6] = target: T7, actinin alpha 1, transcript variant 2 (human, UniProt P12814 1-892)
T7 construct: HuProt array protein, full-length recombinant from yeast; also called ACTN1

[7] = target: T8, dual specificity phosphatase 12 (human, UniProt Q9UNI6 1-340)
T8 construct: HuProt array protein, full-length recombinant from yeast; also called DUSP12

[8] = target: T9, zinc finger with KRAB and SCAN domains 4, transcript variant X1 (human, UniProt Q969J2 1-545)
T9 construct: HuProt array protein, full-length recombinant from yeast; also called ZKSCAN4
T9 sequence: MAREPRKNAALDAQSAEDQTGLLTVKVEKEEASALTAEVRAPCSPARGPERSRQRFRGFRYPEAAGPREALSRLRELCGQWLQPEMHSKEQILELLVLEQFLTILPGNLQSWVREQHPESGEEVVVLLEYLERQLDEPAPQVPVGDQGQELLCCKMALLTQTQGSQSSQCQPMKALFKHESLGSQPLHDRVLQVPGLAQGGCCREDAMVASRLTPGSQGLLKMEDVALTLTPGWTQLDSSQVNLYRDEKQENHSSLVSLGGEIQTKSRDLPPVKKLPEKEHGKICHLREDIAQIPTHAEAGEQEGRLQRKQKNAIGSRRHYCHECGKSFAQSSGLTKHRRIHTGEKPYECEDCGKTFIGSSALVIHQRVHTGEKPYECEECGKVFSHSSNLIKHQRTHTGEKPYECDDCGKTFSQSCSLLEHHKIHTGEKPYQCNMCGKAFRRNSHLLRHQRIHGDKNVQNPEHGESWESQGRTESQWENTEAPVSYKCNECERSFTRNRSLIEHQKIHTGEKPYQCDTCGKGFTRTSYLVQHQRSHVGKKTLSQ

[9] = target: T10, 5-hydroxytryptamine receptor 1E (human, UniProt P28566 1-365)
T10 construct: HuProt array protein, full-length recombinant from yeast; also called HTR1E
T10 sequence (P28566 whole entry): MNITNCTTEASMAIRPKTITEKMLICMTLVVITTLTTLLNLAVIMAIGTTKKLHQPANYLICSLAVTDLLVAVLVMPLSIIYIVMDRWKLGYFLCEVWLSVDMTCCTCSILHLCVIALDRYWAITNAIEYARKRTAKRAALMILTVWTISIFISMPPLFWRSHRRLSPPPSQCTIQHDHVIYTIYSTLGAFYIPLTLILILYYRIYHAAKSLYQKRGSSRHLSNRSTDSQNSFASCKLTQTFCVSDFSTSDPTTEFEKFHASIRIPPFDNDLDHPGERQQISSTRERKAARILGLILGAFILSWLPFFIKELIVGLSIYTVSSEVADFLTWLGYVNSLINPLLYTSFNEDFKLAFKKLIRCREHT

T7 sequence (P12814 whole entry, change not shown): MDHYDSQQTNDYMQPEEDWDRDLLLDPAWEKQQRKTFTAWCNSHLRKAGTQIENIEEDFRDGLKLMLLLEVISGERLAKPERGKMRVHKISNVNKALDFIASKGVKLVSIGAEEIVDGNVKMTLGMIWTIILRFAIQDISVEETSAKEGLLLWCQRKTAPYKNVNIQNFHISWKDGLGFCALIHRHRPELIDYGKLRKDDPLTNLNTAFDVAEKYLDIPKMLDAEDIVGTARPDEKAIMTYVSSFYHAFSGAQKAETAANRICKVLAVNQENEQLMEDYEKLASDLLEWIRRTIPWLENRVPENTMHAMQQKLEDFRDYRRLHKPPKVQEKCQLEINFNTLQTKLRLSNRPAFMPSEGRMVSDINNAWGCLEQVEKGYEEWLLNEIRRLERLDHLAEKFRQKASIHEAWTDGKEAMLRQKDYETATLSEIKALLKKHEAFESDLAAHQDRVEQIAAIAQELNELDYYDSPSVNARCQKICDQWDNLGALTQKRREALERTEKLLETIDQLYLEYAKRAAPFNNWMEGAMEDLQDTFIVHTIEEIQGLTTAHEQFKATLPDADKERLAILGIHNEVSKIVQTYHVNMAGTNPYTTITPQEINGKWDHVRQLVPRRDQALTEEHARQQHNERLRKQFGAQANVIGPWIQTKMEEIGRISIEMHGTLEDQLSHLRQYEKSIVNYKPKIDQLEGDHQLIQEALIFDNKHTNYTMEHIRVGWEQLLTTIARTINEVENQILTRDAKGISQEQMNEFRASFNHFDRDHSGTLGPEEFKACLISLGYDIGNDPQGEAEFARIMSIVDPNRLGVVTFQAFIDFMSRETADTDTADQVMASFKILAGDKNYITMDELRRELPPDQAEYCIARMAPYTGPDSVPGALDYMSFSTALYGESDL
T4 sequence (P78358 whole entry): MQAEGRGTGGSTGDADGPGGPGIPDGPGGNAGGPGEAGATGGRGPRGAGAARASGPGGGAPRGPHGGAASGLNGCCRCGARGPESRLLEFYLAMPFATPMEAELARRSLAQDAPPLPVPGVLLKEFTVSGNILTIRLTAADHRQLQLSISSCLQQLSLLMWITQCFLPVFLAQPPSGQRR
T8 sequence (Q9UNI6 whole entry): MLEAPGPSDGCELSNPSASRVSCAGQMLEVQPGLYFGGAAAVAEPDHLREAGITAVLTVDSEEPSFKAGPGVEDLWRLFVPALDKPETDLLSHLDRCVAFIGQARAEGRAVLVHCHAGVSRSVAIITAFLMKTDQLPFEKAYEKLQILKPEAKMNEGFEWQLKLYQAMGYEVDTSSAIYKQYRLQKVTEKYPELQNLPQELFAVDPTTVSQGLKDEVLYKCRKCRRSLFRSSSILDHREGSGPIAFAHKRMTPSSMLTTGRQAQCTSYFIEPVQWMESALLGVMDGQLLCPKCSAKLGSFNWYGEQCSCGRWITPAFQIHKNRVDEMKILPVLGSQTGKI
T1 sequence (P55082 19-362 limits assumed, change not shown): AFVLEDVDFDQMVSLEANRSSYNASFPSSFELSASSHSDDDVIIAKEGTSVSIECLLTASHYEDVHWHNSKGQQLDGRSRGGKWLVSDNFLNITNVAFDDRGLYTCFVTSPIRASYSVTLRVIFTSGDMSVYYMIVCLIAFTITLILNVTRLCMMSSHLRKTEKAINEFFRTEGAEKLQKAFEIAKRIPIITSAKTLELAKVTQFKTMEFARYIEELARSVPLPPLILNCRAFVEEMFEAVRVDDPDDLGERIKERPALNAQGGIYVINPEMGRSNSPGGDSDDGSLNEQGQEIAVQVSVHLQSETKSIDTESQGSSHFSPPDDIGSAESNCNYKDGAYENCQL

binding result [1]: binds
B1: TBRE1002 (antibody, V domains shown)
VH: QVQLVESGGGVVQPGGSLRLSCGASGFAFSSNGMHWVRQAPGKGLEWVAFIHYDGRNKHYTDSVKGRFAISVDDSKTTLYLQMSSLKTEDTAVYYCVKDSRVTGQSSGYIFDSWGQGTLVTVSS
VL: ETVMTQSPATLSVSPGDRATLSCRASQNVNFNLAWYQQKPGQAPRLLIYDASTRATGIPARFSGSASGTEFTLTINSLQSEDFAVYYCQQYNNWWTFGQGTKLEIKR
notes: detected with anti-human IgG Fc

binding result (cancer/testis antigen 1A): binds
B4: TBLA1012 (antibody, V domains shown)
VH: LLQLVESGGGVVQPGRSLRLSCAASGFTFTRHGFHWVRQAPGKGLEWVAVISSDGRKIHYTDSVKGRFVISRDDSDNTVYLHMNSLRLGDTALYYCARDSGGTPGPYWGQGTLVTVSS
VL: DVVMTQSPLSLPVTLGQPASISCRSSQSLVHSDGNTYLNWFQQRPGQSPRRLIYMVSNRDSGVPDRFSGSGSGTDFTLKISRVEAEDVGVYYCLQGTHWPPTIGQGTKVEIE
notes: as for B1

binding result [4]: binds
binding result [5]: binds
B5: TBRE1012 (antibody, V domains shown)
VH: QVQLQESGPGLVKPTQTLSLTCTVSGGSISSGSYYWNWIRQPAGKGLEWIGNIYTSGNTDYNPSLKSRVTISLDTSKNQVSLNLTSVTAADTAVYYCATTPSSSWYWYFDPWGQGTLVTVSS
VL: DLQMTQSPSSLSASIGDRVTITCRASQSISTYFNWYQQKPGKAPKLLIYAASSLQSGVPSRFSGSGSGTDFTLTITSLQPEDFATYYCQQTYSNPWTFGQGTKVDFKR
notes: as for B1

binding result [6]: binds
binding result [7]: binds
B6: TBRE1007 (antibody, V domains shown)
VH: QVQLQESGPGLVRPSETLSLTCDVSGYLISSGYYWGWVRQPPGKGLEWIGSVYHSGNAYYNPSLKGRVTMSVDTSKNQFSLKLTSVAAEDTAVYYCAREHRSGYQRYWGQGTLVTVSS
VL: IQMTQSPSSLSASVGDRVTITCRASQAIANSLAWYQQRPGKAPKLLIYAASSLESGVPSRFSGSGSGTDYTLTISSLQPEDFATYYCQQYYINPRTFGQGTKVEIKR
notes: as for B1

Second part, the binder before the results:

B2: TBRE1013 (antibody, V domains shown)
VH: EVQLVESGGGLVKPGGSLRLSCAGSGFSFSSYSMNWVRQAPGKGLEWVSSISSKSSSKNYIDSVKNRFIISRDNAKNSLYLQMNSLRAEDTAVYYCARDLELIIAAGAPLDHWGQGTLVTVSS
VL: DIQMTQSPSSLSASVGDRVTITCRASQSIKNYVNWYQQKPGEAPNLLIFAASNLQSGVPSRFTGSGSGTDFSLTISSLQPEDFAAYYCQQTYSHPRTFGQGTRVEIKR
notes: as for B1
binding result [2]: binds

B3: TBRE1006 (antibody, V domains shown)
VH: QVQLVQSGAEVKKPGASVKVSCKASGYIFTSYAIHWVRQAPGQRLEWMGWINAGNGNTKYSQKFQGRVTITRDTSANTAYMELSSLRSEDTAIYYCARDIAVAITNYFGSWGQGTLVTVSS
VL: EIVLTQSPATLSLSPGERATLSCRASQSVGSYLAWYQQKPGQAPRLLIYDASNRATGIPARFSGSGSGTDFTLTISSLEPEDFAVYYCQQGSNWLALTFGGGTKVEIKR
notes: as for B1
binding result [3]: binds

B7: TBRE1009 (antibody, V domains shown)
VH: EVQLVESGGGLVKPGGSLRLSCVGSGFTFSNYSMNWVRQAPGRGLEWVSSISWGSSYINYADSVKGRFTISRDNAKNSLYLQMTSLTAEDTAVYYCACRRIYQGFDPWGQGTLVT
VL: DIQMTQSPSSLSASVGDRVTISCRASHNINTYLNWYQHKPGKAPKIVIYGASSLQSGVPSRFSGSGSGTDFSLTISSLQREDFATYFCQQSFNTVLTFGGGTRVDI
notes: as for B1
binding result [8]: binds

B8: TBLA1013 (antibody, V domains shown)
VH: EVQLLESGGGLVQPGGSLTLSCVGSRFTFSSYAMNWVRQSPGRGLEWVASISATTGSTYYTDSVEGRFTISRDNSRDTLYLQMNSLRADDTALYYCVRSFVGAVPAYPNFDFWGPGTLVTVSS
VL: PSGLTQPPSASGTPGQRVTMSCSGSSSNIGRNYVYWYQQLPGAAPKLLIYRDNQRPSGVPDRFSGSKSGTSASLAISGLRSEDEADYYCAAWDDNVSGPGFGAGTRLTVLG
notes: as for B1
binding result [9]: binds
